Laboratory results reported in the supplement of paper PMC9170038.

System: MS2 coat protein
Assay: apparent KD of MS2 coat protein; designed switch direction (-1 OFF switch, 1 ON switch): -1; higher = weaker reporter binding
Outline: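 Designed RNA switches with common flanks were made on Illumina chips by stalled E. coli RNA polymerase. Titration with SNAP-549-labelled MS2 coat protein doubled from 0.7 or 1.5 nM up to 3 µM. Apparent KD is each design's median over clusters after curve-fitting normalised fluorescence.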

[1] = input ligand: microRNA oligo, concentration not stated
[2] = Eterna round: R95, input ligand: FMN 200 uM
[3] = Eterna round: R95, input ligand: microRNA oligo, concentration not stated
[4] = Eterna round: R95, input ligand: none

GGUCGACAUGAGGAUCACCCAUGUCAGGAUAUCUACAUUGAAGCUUCGGCUUCAAUGUAGAGAAGGGACAUAAU [E1/14-B1] (Eterna round: R97, puzzle: Exclusion 1)
apparent KD of MS2 coat protein (input ligand: FMN 200 uM): 35.3 nM | apparent KD of MS2 coat protein (input ligand: none): 30.1 nM

UAUGGUUAAGUCAGGAUAUGCACGAAGAGAUCAAUGCAGAAGGGACAUGAGGAUCACCCAUGUAAAGUCGUGUU [Ex4 #74] (Eterna round: R97, puzzle: Brourd's mod of Exclusion 4)
apparent KD of MS2 coat protein (input ligand: FMN 200 uM): 55.1 nM | apparent KD of MS2 coat protein (input ligand: none): 27.7 nM

GCGCCAUCGUGAGAUGGCGUAUUUACAUGAGGAUCACCCAUGUAGGAUAUCGAUUGCUUUGCAGUCGAGAAGGGCAUGAUAAGU [JL ENG3 3.78] (Eterna round: R96, puzzle: Exclusion NG 3)
apparent KD of MS2 coat protein (input ligand: FMN 200 uM): 72.5 nM | apparent KD of MS2 coat protein [1]: 37.3 nM | apparent KD of MS2 coat protein (input ligand: none): 54.5 nM

AUUUAGUGAGGAUAUGUGGCUUCGAUCGUGAGAUCGAGGCUACAGAAGGCACAUGAGGAUCACCCAUGUUCCUA [salish99_ex4_r4_115] (Eterna round: R97, puzzle: Exclusion 4)
apparent KD of MS2 coat protein (input ligand: FMN 200 uM): 86.3 nM | apparent KD of MS2 coat protein (input ligand: none): 21.4 nM

CCAGGCAGUGUGAGGAUAUGCUGGUGCAUACAUCAGCAGAAGGCACAUGAGGAUCACCCAUGUGAAGAGCUUGG [Mat - Exclusion 4 - JL Mod - D98] (puzzle: Brourd's mod of Exclusion 4)
apparent KD of MS2 coat protein [2]: 179 nM | apparent KD of MS2 coat protein [3]: 16.9 nM | apparent KD of MS2 coat protein [4]: 27.5 nM

GUAAACGAUCAGGAUAUAUCAAAUCAUAGCUUGAUAGAAGGGAUCACAUGAGGAUCACCCAUGUGAUCUUCUUU [jl-ex6-4.15 ViennaUCT mod] (Eterna round: R97, puzzle: Exclusion 6)
apparent KD of MS2 coat protein (input ligand: FMN 200 uM): 13.2 nM | apparent KD of MS2 coat protein (input ligand: none): 13.9 nM

GAAAAGGUAGGAUAUACGAUAAAAAAGGGUAGAAAAAAAACACAUGAGGAUCACCCAUGUAGAAGGACCAAAAG [salish99_ex2_r3_086] (puzzle: Exclusion 2)
apparent KD of MS2 coat protein [2]: 95.2 nM | apparent KD of MS2 coat protein [3]: 20.7 nM | apparent KD of MS2 coat protein [4]: 30 nM

UUUUAAUAUGAAGGAUAUACUUAACAUGAGGAUCACCCAUGUGGUGUUGUGAGUGAGUGAGUUUAGUAGAAGGUCAAUUAUUUU [JMF's solution 25] (Eterna round: R96, puzzle: Exclusion NG 2)
apparent KD of MS2 coat protein (input ligand: FMN 200 uM): 1020 nM | apparent KD of MS2 coat protein [1]: 249 nM | apparent KD of MS2 coat protein (input ligand: none): 405 nM

AGAGUGCUGCGAGGAUAUACAUGAGGAUCACCCAUGUAAAAGUGUGAGGCAAAGCCUCACACGAAGUAGAAGGCGCAGUACUCA [Mat - Exclusion NG 2 - Mod of JL - D34] (Eterna round: R96, puzzle: Exclusion NG 2)
apparent KD of MS2 coat protein (input ligand: FMN 200 uM): 12.8 nM | apparent KD of MS2 coat protein [1]: 9.85 nM | apparent KD of MS2 coat protein (input ligand: none): 25.2 nM

AAAAAGCGAGGAUAUGCAUAAGGACCCGGGCGGGAAGUCGGACAUGAGGAUCACCCAUGUAGAAGGCGCAAAAA [Exclss2-V] (puzzle: Exclusion 2)
apparent KD of MS2 coat protein [2]: 25.5 nM | apparent KD of MS2 coat protein [3]: 13.2 nM | apparent KD of MS2 coat protein [4]: 14.4 nM

AGAUGGCGAGGAUAUACAUGAGGAUCACCCAUGUGAGAUAAAAGAGUGAGGAAGAAAAGUAGAAGGCGCUGUCA [Mat - Exclusion 3 - Mod of Salish D16] (puzzle: Exclusion 3)
apparent KD of MS2 coat protein [2]: 116 nM | apparent KD of MS2 coat protein [3]: 95.8 nM | apparent KD of MS2 coat protein [4]: 120 nM

ACAAAUCAUGUAGGAUAUGCGUGGCGAAGCUAUGCAGAAGGACAUGAGGAUCACCCAUGUGCUUCCGUCUGCGUACAGACGGUA [Mat - Exclusion NG 1 - Mod of JL - D16] (Eterna round: R96, puzzle: Exclusion NG 1)
apparent KD of MS2 coat protein (input ligand: FMN 200 uM): 75.3 nM | apparent KD of MS2 coat protein [1]: 64.6 nM | apparent KD of MS2 coat protein (input ligand: none): 91.5 nM

UUAUGAGAGCAGGAUAUCUUAUAAGUGUAUUAAAGAGAAGGGCUCACAUGAGGAUCACCCAUGUGGUCCUAGAU [LRO-Excl6-17-mod of 4.86 by jal] (Eterna round: R97, puzzle: Exclusion 6)
apparent KD of MS2 coat protein (input ligand: FMN 200 uM): 106 nM | apparent KD of MS2 coat protein (input ligand: none): 33.3 nM

GAACGUGGUGAGGAUAUCCGGUCUAACGUGCCAGGAGAAGGCGCCACAUGAGGAUCACCCAUGUGGGUCCCGCC [EX6 B.9] (Eterna round: R97, puzzle: Exclusion 6)
apparent KD of MS2 coat protein (input ligand: FMN 200 uM): 26 nM | apparent KD of MS2 coat protein (input ligand: none): 14.9 nM

GUGAGUAGUCAGGAUAUGCUGUACAAAAGUACAGCAGAAGGGACUACAUGAGGAUCACCCAUGUUUACUUCAUG [Omei Ex6 B5] (Eterna round: R97, puzzle: Exclusion 6)
apparent KD of MS2 coat protein (input ligand: FMN 200 uM): 522 nM | apparent KD of MS2 coat protein (input ligand: none): 609 nM

AUCAUGUAAGGAUAUCUGACAUGUGACUUCGGUCACUGUUCAGAGAAGGUACAUGAGGAUCACCCAUGUAGAAC [Ex4-3: 44] (puzzle: Exclusion 4)
apparent KD of MS2 coat protein [3]: 59.6 nM

GAGUGACAUGAGGAUCACCCAUGUGAGGAUAUCGGACGGACCAAAUUAACAACCACCGCGAGAAGGCACAUCGG [Exclusion 1 V21] (puzzle: Exclusion 1)
apparent KD of MS2 coat protein [2]: 58.4 nM | apparent KD of MS2 coat protein [3]: 98.9 nM | apparent KD of MS2 coat protein [4]: 107 nM

AAAUUCAGAGGAUAUGCGCAUAGAUAAGACUUUUUUUCUUAACAUGAGGAUCACCCAUGUAGAAGGCUGUAAAA [Ex2 #60] (Eterna round: R97, puzzle: Exclusion 2)
apparent KD of MS2 coat protein (input ligand: FMN 200 uM): 20.5 nM | apparent KD of MS2 coat protein (input ligand: none): 18.4 nM

UAGAUGGCUCAGGAUAUUUGCCAACUAACUCGCGAAGAAGGGAGCACAUGAGGAUCACCCAUGUGAUCGAACGG [Rila] (puzzle: Exclusion 6)
apparent KD of MS2 coat protein [3]: 16.3 nM

CUCGUGUGAGGAUAUUCACACCCGUUGCAGCGACGGACAAAGAAGAAGGCACAUGAGGAUCACCCAUGUAAAGA [Onan] (Eterna round: R97, puzzle: Exclusion 4)
apparent KD of MS2 coat protein (input ligand: FMN 200 uM): 97.8 nM | apparent KD of MS2 coat protein (input ligand: none): 192 nM

UUGGAGAGAGGAUAUCCCUAGUUUAACAUGAGGAUCACCCAUGUGCGCGUCAAGUCGAAAGGAGAAGGUUCGGCGA [Eternabot (L1) Solution 5] (Eterna round: R97, puzzle: Exclusion 5)
apparent KD of MS2 coat protein (input ligand: FMN 200 uM): 32.7 nM | apparent KD of MS2 coat protein (input ligand: none): 26.8 nM

CAGCGAUCAGGAUAUACAUGAGGAUCACCCAUGUGUUCCAGCUAGGAAACUAGCAAAUGUAGAAGGGAUCGCUG [jl-ex3-4.00 salish99 mod] (Eterna round: R97, puzzle: Exclusion 3)
apparent KD of MS2 coat protein (input ligand: FMN 200 uM): 32.2 nM | apparent KD of MS2 coat protein (input ligand: none): 346 nM

GAAAAGGUAGGAUAUACGAAAAAAAAAGGUAGAAAAAAAACACAUGAGGAUCACCCAUGUAGAAGGACCAAAAG [salish99_ex2_r3_070] (puzzle: Exclusion 2)
apparent KD of MS2 coat protein [2]: 37.4 nM | apparent KD of MS2 coat protein [3]: 51.5 nM | apparent KD of MS2 coat protein [4]: 30.6 nM

CCGGUAAAGGAGGAUAUAGGAGUCGAUAGACACCUAGAAGGCCUGACAUGAGGAUCACCCAUGUGUCCUUCCGG [Fiskers Ex 6 - 94] (puzzle: Exclusion 6)
apparent KD of MS2 coat protein [3]: 16.8 nM

CUUAGACAUGAGGAUCACCCAUGUGAGGAUAUGAAAUUAAUUAAUUAUUAAGUAUGAAUCAGAAGGCACAUAUG [Mat - Mod of Hyphema D36] (puzzle: Exclusion 1)
apparent KD of MS2 coat protein [2]: 79.9 nM | apparent KD of MS2 coat protein [3]: 81.6 nM | apparent KD of MS2 coat protein [4]: 78.9 nM

CUGCUGGAGCUUUGCUUUAGUCGUACAUGAGGAUCACCCAUGUAGGAUAUGGUAGGCUUUGCUUACUAGAAGGAUGGAGUGGUC [salish99_ExNG3_r04_607] (Eterna round: R96, puzzle: Exclusion NG 3)
apparent KD of MS2 coat protein (input ligand: FMN 200 uM): 166 nM | apparent KD of MS2 coat protein [1]: 38.1 nM | apparent KD of MS2 coat protein (input ligand: none): 50.2 nM
